This is an account of results in patent US20200316211A1, “LOCALLY ACTING TOLL-LIKE RECEPTOR 7 (TLR7) AND/OR TLR8 AGONIST IMMUNOTHERAPY COMPOUNDS AND THEIR USES” (Altimmune UK Limited, priority 2019, published 2020).

Series [1] in a line: Appearance (visual) and solubility (RP-HPLC of supernatant) in different buffer conditions. The series is classed as physicochemical. The conditions noted are these: for Solubility/appearance across buffer conditions: change in pH and/or presence of sodium chloride; for HPLC solubility: peak area vs same compound in 10% acetic acid. The protocol:
The solubility of peptide conjugates KK-12, HH-12, AH-12 and HL-12 was determined by visual inspection of the solution and by RP-HPLC. Twenty (20) minutes after dispersion of the peptide conjugates in different buffer conditions, the solutions were centrifuged for 10 minutes and the supernatant analyzed by RP-HPLC. The peak area of each peptide conjugate was compared with the area of the same compound made fully soluble in 10% acetic acid. Appearance of the solution was evaluated visually according to the following criteria: clear, very slightly opalescent, slightly opalescent, opalescent or precipitated.

In the next series the test system is CT26 cells. In words: Antitumor activity after intratumoral injection, CT26 right flank model. The series is classed as in vivo, BALB/c mice. The conditions noted are these: 100 nmol/dose/animal intratumoral, day 1, 3, 5; FIG. 10. The protocol:
(§1) Six to eight-week-old female BALB/c mice (Charles River) were injected subcutaneously with 2×10^5 CT26 cells on the right flank. When the tumors reached an average volume of ˜150 mm^3, mice were randomized into seven groups of eight mice per group, approximately 10 days (13 days) post tumor cell grafting, referred as day 0. After randomization, tumor size and body weight were assessed three times a week for the duration of the study. Animals were sacrificed according to the following humane endpoints: tumor volume ≥2000 mm^3, presence of necrotic or ulcerated tumor, impaired mobility including transient prostration or hunched posture, or interference with a vital physiological function. Treatments were initiated on day 1. All animals from group 1 to group 6 received three intratumoral injections of either formulated or non-formulated small molecule TLR7/8 agonists, or vehicle control, once every two days, on day 1, day 3 and day 5, in 50 μl delivery dose. Mice of group 7 were untreated. Animals from group 1 to group 4 were respectively treated with 100 nmol/dose/animal of kHL-12 or pHL-12 both prepared in 28 mM L-Histidine/Mannitol dilution buffer, or 3M-052 (MedChemExpress, teltralimod Cat. No.: HY-109104) prepared in ethanol/sesame oil (1:10), or R848 (Invivogen, R848 VacciGrade™, Cat. Code vac-r848) reconstituted in 28 mM L-Histidine/Mannitol dilution buffer. Mice from group 5 and group 6 received control vehicles in the delivery dose of 50 μl, 28 mM L-Histidine/Mannitol dilution buffer and ethanol/sesame oil (1:10), respectively.
(§2) Body weight was normalized by subtracting the weight of the tumor to the overall body weight.

The nature of series [2]: Change in body weight in the CT26 study (systemic toxicity). The following applies: 100 nmol/dose/animal intratumoral, day 1, 3, 5; body weight minus tumor weight; FIG. 11. The series is classed as in vivo, BALB/c mice. The protocol: as §1, §2
For series [3] the following is noted: in more than half of the participants; cited from earlier work.
For series [4] the following is noted: poloxamer 407 thermogel formulation, intratumoral, animal models; cited from earlier work.
The conditions of series [5]: intratumoral, very low doses (0.005 to 0.055 mg); cited from earlier work.

Where a SMILES comes first, the peptide text is derived from it. Where no end group is shown, it is not given here. Side-chain parts run from the residue outwards. The star is where a group is joined. X1 = CCCCc1nc2c(N)nc3ccccc3c2n1Cc1ccc(CNC(=O)COCC(=O)*)cc1; Palmitoyl = CCCCCCCCCCCCCCCC(=O)*; PEG3 = NCCOCCOCCOCCC(=O)O; ADJ12 = not defined here

Turning to `CCCCc1nc2c(N)nc3ccccc3c2n1Cc1ccc(CNC(=O)COCC(=O)NCCOCCOCCOCCC(=O)NCCCC[C@H](NC(=O)[C@H](CC(C)C)NC(=O)[C@H](CCCNC(=N)N)NC(=O)[C@H](CCCNC(=N)N)NC(=O)[C@H](CC(C)C)NC(=O)[C@H](CC(C)C)NC(=O)[C@H](CCCCN)NC(=O)[C@H](C)NC(=O)[C@H](CCCCN)NC(=O)[C@H](CC(C)C)NC(=O)[C@H](C)NC(=O)[C@H](CC(C)C)NC(=O)[C@H](CCCCN)NC(=O)[C@H](C)NC(=O)[C@H](CCCCN)NC(=O)[C@H](CC(C)C)NC(=O)[C@H](CC(C)C)NC(=O)[C@H](CCCNC(=N)N)NC(=O)[C@H](CCCNC(=N)N)NC(C)=O)C(N)=O)cc1` [KK-12, Ac-RRLLKAKLALKAKLLRRLK(ADJ12)-NH2] (Ac-RRLLKAKLALKAKLLRRLK([PEG3-X1])-NH2), the “Solubility/appearance across buffer conditions” value in series [1] is listed as “remains soluble”. In addition, the HPLC solubility is greater than 98% HPLC in series [1] (pH 5.2, NaCl 154 mM); greater than 98% HPLC in series [1] (pH 5.2, no NaCl); greater than 98% HPLC in series [1] (pH 7.5, NaCl 154 mM); greater than 98% HPLC in series [1] (pH 7.5, no NaCl).
Regarding `CCOCc1nc2c(N)nc3ccccc3c2n1CC(C)(C)O` [R848, 1-(4-amino-2-(ethoxymethyl)-1H-imidazo[4,5-c]quinolin-1-yl)-2-methylpropan-2-ol], in the series on CT26 cells, the “Antitumoral activity (median tumor volume)” value (shortened to “Antitumoral activity”) was “comparable”. Also, in series [2], the “Impact on body weight over time” value was “pronounced loss in body weight”.
Consider “K(Pam)-RRLLHALLALLAHLLRRLK(ADJ12)-NH2 (K(Palmitoyl)RRLLHALLALLAHLLRRLK(ADJ12)-NH2; reading uncertain; also: printed as K(Pam)-RRLLHALLALLAHLLRRLK(ADJ12)-NH2) [pHL-12]”, for which the “Antitumoral activity” value in the series with CT26 cells is “lower level of antitumor activity”.
For `CCCCOc1nc(N)c2[nH]c(=O)n(CCCN(CCCN3CCOCC3)Cc3cccc(CC(=O)OC)c3)c2n1` [AZD8848], the “Clinical safety issues from systemic interferon signaling” value in series [3] is reported as “significant influenza-like symptoms”.
For the compound `CCCCc1nc2c(N)nc3ccccc3c2n1Cc1ccc(CNC(=O)COCC(=O)NCCOCCOCCOCCC(=O)NCCCC[C@H](NC(=O)[C@H](CC(C)C)NC(=O)[C@H](CCCNC(=N)N)NC(=O)[C@H](CCCNC(=N)N)NC(=O)[C@H](CC(C)C)NC(=O)[C@H](CC(C)C)NC(=O)[C@H](C)NC(=O)[C@H](C)NC(=O)[C@H](Cc2c[nH]cn2)NC(=O)[C@H](CC(C)C)NC(=O)[C@H](C)NC(=O)[C@H](CC(C)C)NC(=O)[C@H](Cc2c[nH]cn2)NC(=O)[C@H](C)NC(=O)[C@H](C)NC(=O)[C@H](CC(C)C)NC(=O)[C@H](CC(C)C)NC(=O)[C@H](CCCNC(=N)N)NC(=O)[C@H](CCCNC(=N)N)NC(C)=O)C(N)=O)cc1` [AH-12, Ac-RRLLAAHLALHAALLRRLK(ADJ12)-NH2] (Ac-RRLLAAHLALHAALLRRLK([PEG3-X1])-NH2), the “Solubility/appearance across buffer conditions” value in series [1] is “change in appearance and/or HPLC solubility”. Besides, the HPLC solubility is listed as greater than 98% HPLC in series [1] (pH 5.2, NaCl 154 mM); greater than 98% HPLC in series [1] (pH 5.2, no NaCl); 90% HPLC in series [1] (pH 7.5, NaCl 154 mM); greater than 98% HPLC in series [1] (pH 7.5, no NaCl).
In the case of `CCCCc1nc2c(N)nc3ccccc3c2n1Cc1ccc(CNC(=O)COCC(=O)NCCOCCOCCOCCC(=O)NCCCC[C@H](NC(=O)[C@H](CC(C)C)NC(=O)[C@H](CCCNC(=N)N)NC(=O)[C@H](CCCNC(=N)N)NC(=O)[C@H](CC(C)C)NC(=O)[C@H](CC(C)C)NC(=O)[C@H](Cc2c[nH]cn2)NC(=O)[C@H](C)NC(=O)[C@H](CC(C)C)NC(=O)[C@H](CC(C)C)NC(=O)[C@H](C)NC(=O)[C@H](CC(C)C)NC(=O)[C@H](CC(C)C)NC(=O)[C@H](C)NC(=O)[C@H](Cc2c[nH]cn2)NC(=O)[C@H](CC(C)C)NC(=O)[C@H](CC(C)C)NC(=O)[C@H](CCCNC(=N)N)NC(=O)[C@H](CCCNC(=N)N)NC(=O)[C@@H](N)CCCCNC(C)=O)C(N)=O)cc1` [kHL-12, K(Ac)—RRLLHALLALLAHLLRRLK(ADJ12)-NH2] (H-K(Ac)RRLLHALLALLAHLLRRLK([PEG3-X1])-NH2; N-terminus and C-terminus assumed), the “Impact on body weight over time” value in series [2] was “limited impact on the body weight”.
Take `CCCCCCCCCCCCCCCCCC(=O)NCCCCOn1c(CCCC)nc2c(N)nc3ccccc3c21` [3M-052]: in the series with CT26 cells, the “Antitumoral activity” value is on record as “comparable”. For the same compound, in series [4], the “Systemic release of the drug” value is “systemic release of the drug after administration of this formulation was still observed”. Further, the Clinical adverse events result in series [5] is listed as “induction of adverse events related to cytokine release syndrome”. In addition, the “Impact on body weight over time” value in series [2] was “pronounced loss in body weight”.
As for `CCCCc1nc2c(N)nc3ccccc3c2n1Cc1ccc(CNC(=O)COCC(=O)NCCOCCOCCOCCC(=O)NCCCC[C@H](NC(=O)[C@H](CC(C)C)NC(=O)[C@H](CCCNC(=N)N)NC(=O)[C@H](CCCNC(=N)N)NC(=O)[C@H](CC(C)C)NC(=O)[C@H](CC(C)C)NC(=O)[C@H](Cc2c[nH]cn2)NC(=O)[C@H](C)NC(=O)[C@H](CC(C)C)NC(=O)[C@H](CC(C)C)NC(=O)[C@H](C)NC(=O)[C@H](CC(C)C)NC(=O)[C@H](CC(C)C)NC(=O)[C@H](C)NC(=O)[C@H](Cc2c[nH]cn2)NC(=O)[C@H](CC(C)C)NC(=O)[C@H](CC(C)C)NC(=O)[C@H](CCCNC(=N)N)NC(=O)[C@H](CCCNC(=N)N)NC(C)=O)C(N)=O)cc1` [HL-12, Ac-RRLLHALLALLAHLLRRLK(ADJ12)-NH2] (Ac-RRLLHALLALLAHLLRRLK([PEG3-X1])-NH2), the “Solubility/appearance across buffer conditions” value in series [1] is “change in appearance and/or HPLC solubility”. In addition, the HPLC solubility in series [1] (pH 5.2, NaCl 154 mM) was greater than 98% HPLC; in series [1] (pH 5.2, no NaCl), greater than 98% HPLC; in series [1] (pH 7.5, NaCl 154 mM), 0% HPLC; in series [1] (pH 7.5, no NaCl), greater than 98% HPLC.
Consider `CCCCc1nc2c(N)nc3ccccc3c2n1Cc1ccc(CNC(=O)COCC(=O)NCCOCCOCCOCCC(=O)NCCCC[C@H](NC(=O)[C@H](CC(C)C)NC(=O)[C@H](CCCNC(=N)N)NC(=O)[C@H](CCCNC(=N)N)NC(=O)[C@H](CC(C)C)NC(=O)[C@H](CC(C)C)NC(=O)[C@H](Cc2c[nH]cn2)NC(=O)[C@H](C)NC(=O)[C@H](Cc2c[nH]cn2)NC(=O)[C@H](CC(C)C)NC(=O)[C@H](C)NC(=O)[C@H](CC(C)C)NC(=O)[C@H](Cc2c[nH]cn2)NC(=O)[C@H](C)NC(=O)[C@H](Cc2c[nH]cn2)NC(=O)[C@H](CC(C)C)NC(=O)[C@H](CC(C)C)NC(=O)[C@H](CCCNC(=N)N)NC(=O)[C@H](CCCNC(=N)N)NC(C)=O)C(N)=O)cc1` [HH-12, Ac-RRLLHAHLALHAHLLRRLK(ADJ12)-NH2] (Ac-RRLLHAHLALHAHLLRRLK([PEG3-X1])-NH2), for which the “Solubility/appearance across buffer conditions” value in series [1] is on record as “change in appearance and/or HPLC solubility”. Besides, the HPLC solubility was greater than 98% HPLC in series [1] (pH 5.2, NaCl 154 mM); greater than 98% HPLC in series [1] (pH 5.2, no NaCl); 55% HPLC in series [1] (pH 7.5, NaCl 154 mM); greater than 98% HPLC in series [1] (pH 7.5, no NaCl).
